Measurements as given in the nanobody polyreactivity screen of Harvey et al. (2022).

Test: yeast display, Sf9 membrane polyspecificity reagent, FACS + sequencing; frameworks hold sequencing errors
Method in brief: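 Polyreactivity labels are assigned by the sorting gate from which each nanobody was recovered. The gates were low and high (top ~1%), set on anti-HA fluorescence for expression and streptavidin fluorescence for reagent binding. Before sorting, galactose-induced (36–48 hours) yeast display cells were stained for 1 hour at 4 °C with 10% biotinylated, detergent-solubilized Sf9 membrane reagent.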

Row | Sequence | polyreactivity (PSR sort gate)
1 | QVQLVESGGGLVQAGGSLRLSCAASGIIFSRYAMGWYRQAPGKERELDAAISSRGTSTYYADSVKGRFTISRDNAKNTVYLQMNSLKPEDTAVYYCNAVSRPVRHKSTYDYWGQVTQVTVSS | high polyreactivity
2 | QVQLVESGGGLVQAGGSLRLSCAASGIIFSRYAMGWYRQAPGKERELVAVISSSGGRTYYADSVKGRFTISRDNAKNTVYLQMNSLKPEDTAVYYCAAYTRTGSHLRAYYYWGQGTQVTVSS | high polyreactivity
3 | QVQLVESGGGLVQAGGSLRLSCAASGIIFSSYAMGWYRQAPGKERELVADISYTGGSTYYADSVKGRFTISRDNAKNTVYLQMNSLKPEDTAVYYCAAGVYLHYSVDYWGQGTQVTVSS | low polyreactivity
4 | QVQLVESGGGLVQAGGSLRLSCAASGIIFSSYVMGWYRKATGKERELVAAISSRGVSTYYADSVKGRFTISRDNAKNTVYLQMNSLKPEDTAVYYCNAKDKQGRKQFKLCAGYYLGQGTQVTVSS | high polyreactivity
5 | QVQLVESGGGLVQAGGSLRLSCAASGIIFSVYAMGWYRQAPGKERELVAAITWSGSRTYYADSVKGRFTISRDNAKNTVYLQMNSLKPEDTAVYYCATVFRGFVEYEYWGQGTQVTVSS | low polyreactivity
6 | QVQLVESGGGLVQAGGSLRLSCAASGIIFSWYDMGWYRQAPGKERELVAAISYRGSTNYADSVKGRFTISLDNAKNTVYLQMNSLKPEDTAVYYCNGPRRQYEYDYWGQGTQVTVSS | high polyreactivity
7 | QVQLVESGGGLVQAGGSLRLSCAASGIIFSYYAMGWYRQAPGKERELVADISSDGSTNYADSVKGRFTISRDNAKNTVYLQMNSLKPEDTAVYYCAAGYVHYGWFELDYWGQGTQVTVSS | low polyreactivity
8 | QVQLVESGGGLVQAGGSLRLSCAASGIIFSYYVMGWYRQAPGKERELVAAISRSGAITYYADSVKGRFTISRDNAKNTVYLQMNSLKPEDTSVYYCAAELVPYSYHLRLDYWGQGTQVTVSS | high polyreactivity
9 | QVQLVESGGGLVQAGGSLRLSCAASGIIFTKYAMGWYRQAPGTERELVAAITSGGRTNYADSVKGRFTISRDNAKNTDYLQMNSLKPEDTAVYYCAARYPSRDLLRRYKYWGQGTQVTVSS | high polyreactivity
10 | QVQLVESGGGLVQAGGSLRLSCAASGIIFTWYAMGWYRQAPGKERELVAAISGSGDITYYADSVKGRFTISRDNAKNTVFLQMNSLKPEDTAVYYCAADPWTYWEDYDYWGQGTQVTVSS | low polyreactivity
11 | QVQLVESGGGLVQAGGSLRLSCAASGIIFTYAIGWYRQAPGKERELVAAIDWRGGRTYYADSVKGRFTISRDNAKNTVYLHMNSLKREDTAVYYCGARLGGGTYYWGQGTQVTVSS | high polyreactivity
12 | QVQLVESGGGLVQAGGSLRLSCAASGIIFTYYAMGWYRQAPGKERELVAGISSSGGITYADSVKGRFTISRDNAKNTVYLQMNSLKPEDTAVYYCAAESYGRSETEDDYWGQGTQVTVSS | low polyreactivity
13 | QVQLVESGGGLVQAGGSLRLSCAASGIIFTYYAMGWYTQAPGKERELVAAISSRGDSTYYADSVKGRFTISRDNAKNTVYLQMNSLKPEDTAVYYCNRYLSRPLRAMYYWGLGTQVTVSS | high polyreactivity
14 | QVQLVESGGGLVQAGGSLRLSCAASGIIFVDNDMGWYRQAPGKERELVADISDSGGSTNYADSVKGRFTISRDNAKNTVYLQMNSLKPEDTAVYYCAADSADPTEYDYWGQGTQVSVSS | low polyreactivity
15 | QVQLVESGGGLVQAGGSLRLSCAASGIIFVDNVMGWYIQAPGKERELVAAIDYSGGSTYYADSVKGRFTISRDNAKNSVYLQMNSLKPEDTAVYYCAATDPRRRVRYGYWGQGTQVTVSS | low polyreactivity
16 | QVQLVESGGGLVQAGGSLRLSCAASGIIFVFYVMGWYRQAPGKERELVAAISGGGSTYYADSVKGRFTISRDNAKNTVYLQMNSLKPEDTAVYYCNADYDGGYYGDLSLYDYWGQGTQVTVSS | low polyreactivity
17 | QVQLVESGGGLVQAGGSLRLSCAASGIIFVGYAMGWYRQAPGKERELVAGINCGGSTNYADSVKGRFTISRDNAKNTVYFQMNSLKPEDTAVYYCAAYPFDYYGYDYWGLGTQVTVSS | low polyreactivity
18 | QVQLVESGGGLVQAGGSLRLSCAASGIIFVHYALGWYRQAPGKEWQLVAAITSGGSTKYADSVKGRFTISRDNAKNTVYLQMNSLKPEDTAVYYCAAGHYVYWYRYQLGGYNYWGIGTQVTVSS | high polyreactivity
19 | QVQLVESGGGLVQAGGSLRLSCAASGIIFVIYAMVWYRQAPGKERELVAAISSSGGSTYYADSVKGRFTISRDNAKNTVYLLMNSLKPEDTAVYYCAVALSHYFGGYGYWGQGTQLTVSS | low polyreactivity
20 | QVQLVESGGGLVQAGGSLRLSCAASGIIFVKNAMGWYRQAPGKERELVASISGSGGRTYYADSVKGRFTISRDNAKNTVYLQMKSLKPEDTAVYYCNTLLAPHARKARRHDYWGQGTQVTVSS | low polyreactivity
21 | QVQLVESGGGLVQAGGSLRLSCAASGIIFVPNAMGWSRHPPGKERELVAAITGRGVSTYYADSVKGRFTISRDTAKKTVYLQMNSLKPEDTAVYYCAATLFSYSGGTHDYWGQGTQVTVSS | high polyreactivity
22 | QVQLVESGGGLVQAGGSLRLSCAASGIIFVRYAMGWYRQAPGKERELVAAISWSGGSTYYADSVKGRFTISRDNAKNTVYLQMNSLKPEDTAVYYCAADSHRTRGDARYYYWGQGTQVTVSS | high polyreactivity

Row | Sequence | polyreactivity (PSR sort gate)
23 | QVQLVESGGGLVQAGGSLRLSCAASGIIFVWYAMGWYRQAPGKERELVAAIRSGGITNYADSVKGRFTISRDNAKNTVYLQMNSLKPEDTAVYYCDAPYRTDTGDDYWGQGTQVTVSS | low polyreactivity
24 | QVQLVESGGGLVQAGGSLRLSCAASGIIFVYYAMGWYRQAPGKERELVAAISYSGGRTYYADSVKGRFTISRDNAKNTVYLQMNSLKPEDTAVYYCAAVDRRGYRYALDYWGQGTQVTVSS | high polyreactivity
25 | QVQLVESGGGLVQAGGSLRLSCAASGIIFVYYTMGWYRQAPGKERELVAAITSGGSTYYADSVKGRFTISRDNAKNTVYVQMNSLKPEDTAVYYCAAVGRPPYAGDRGYWGQGTQVTVSS | high polyreactivity
26 | QVQLVESGGGLVQAGGSLRLSCAASGIIFWFYAMGWYRQAPGKERELVAAISGDGDSTYYADSVKGRFTISRDNAKNTVYLQMNSLKPEDTAVYYCAAEWDPVFATDEDDYWGQGTQVTVSS | low polyreactivity
27 | QVQLVESGGGLVQAGGSLRLSCAASGIIFWGYAMGWYRQAPGKERELVAAISRGGSTYYADSVKGRFTISRDNAKNTVYLQMNSLKPEDTAVYYCAATGVRTWALDYWGQGTQVTVSS | high polyreactivity
28 | QVQLVESGGGLVQAGGSLRLSCAASGIIFWRYAMGWYRQAPGKERELVASISWSGGSTSYADSVKGRFTISRDNAKNTVYLQMNSLKPEDTAVYYCAAVFYYRRRYYYWGQGTQVTVSS | high polyreactivity
29 | QVQLVESGGGLVQAGGSLRLSCAASGIIFWRYAMGWYRQAPGKERELVATITSGGSTDYADSVKGRFTISRDNAKNTVYLQMNSLKPEDTEVYYCAALGYATGYWRYYYWGQGTQVTVSS | low polyreactivity
30 | QVQLVESGGGLVQAGGSLRLSCAASGIIFWTYTMGWYRQAPGKERELVAAISSGGSTKYADSVKGRFTISRDNAKNTVYLQMNSLKPEDTAVYYCAAYSAWYGYDYWGQGTQVTVSS | low polyreactivity
31 | QVQLVESGGGLVQAGGSLRLSCAASGIIFWTYTMGWYRQAPGKERELVAAISSGGSTNYADSVKGRFTISRDNAKNTVYLQMNSLKPEDTAVYYCAKRRQYQRSYNYWGQGTQVTVSS | low polyreactivity
32 | QVQLVESGGGLVQAGGSLRLSCAASGIIFWTYTMGWYRQAPGKERELVAAISSGGSTTYADSVKGRFTISRDNSMNTVFLQMNWLKPEDTAVYYCAKRRQYQRSYNYWGKGTQVTVSS | low polyreactivity
33 | QVQLVESGGGLVQAGGSLRLSCAASGIIFWVNAMGWYRQAPGKERELVAAIRSDGSTKYADSVKGRFTISRDNAKNTVYLQMNSLKPEDTALYYCAKRDYSYPWFRDYYYWGQGTQVTVSS | low polyreactivity
34 | QVQLVESGGGLVQAGGSLRLSCAASGIIFWYNAMGWYRQAPGKERELVAAISWSGGRTYYADSVKGRFTISRDNAKNTVYLQMNSLKPEDTAVYYCAAKVPRSSRSYGYWGQGTQVTVSS | high polyreactivity
35 | QVQLVESGGGLVQAGGSLRLSCAASGIIFWYNAMGWYRQAPWKERELVASISTGGRTYYADSVKGRFTISRDNAKNTVYLQMNSLKPEDTAVYYCAAASRVGFLYYYWGQGTQVTVSS | low polyreactivity
36 | QVQLVESGGGLVQAGGSLRLSCAASGIIFWYYAMGWYRQAPGKERELVAAISQSGGRTYYADSVKGRFTISRDNAKNTVYLQMNSLKPEDTAVYYCAAEPYTGYGYWGQGTQVTVSS | high polyreactivity
37 | QVQLVESGGGLVQAGGSLRLSCAASGIIFWYYAMGWYRQAPGKERELVASISGTGGTTYYADSVKGRFTISRDNAKNTVYLQMNSLKPEDTAVYYCAALSGQHDYDYWGQVTQVTVSS | low polyreactivity
38 | QVQLVESGGGLVQAGGSLRLSCAASGIIFYDNAMGWYRQAPGKERELVAAISWGGGDTYYADSVKGRFTISRDNAKNTVYLQMNSLKPEDTAVYYCAAGNLPDYDYWGQGTQVTVSS | low polyreactivity
39 | QVQLVESGGGLVQAGGSLRLSCAASGIIFYDYAMGWYREAPGKERVLVGAISRSGGSTYYADSVKGRFTISRDNAKYTVYLQMNCLKPEDTAVYYCNAKYPFRKKYYYWGQGTQVTVAS | high polyreactivity
40 | QVQLVESGGGLVQAGGSLRLSCAASGIIFYDYAMGWYRQAPGKERELVAAISGSGVGTYYADSVKGRFTISRDNAKNTVYLQMNSLKPEDTAVYYCATRYQWGGPYYRYDYWGQGTQVTVSS | high polyreactivity
41 | QVQLVESGGGLVQAGGSLRLSCAASGIIFYDYAMGWYRQAPGKERELVAAITSNGDNTYYADSVKGRFTISRDNAKNTVYLQMNSLKPEDTAVYYCAVDGSFAADFDNYLEEYGYWGQGTLVTVSS | low polyreactivity
42 | QVQLVESGGGLVQAGGSLRLSCAASGIIFYDYAMGWYRQAPGKERELVAAITSNGDNTYYADSVKGRFTISRDNAKNTVYLQMNSLKPEDTAVYYCAVDGSFAADFDNYLEEYGYWGQGTQVSVSS | low polyreactivity
43 | QVQLVESGGGLVQAGGSLRLSCAASGIIFYDYAMGWYRQAPGKERELVASISWSSGSTYYADSVKGRFTISRDNAKNTVYLQMNSLKPEDTAVYYCAADGYPLQLYNYWGQGTQVTVSS | low polyreactivity
